Assay results from the RNAGym collection of RNA variant scans (doi:10.7554/elife.90254).

B1: OR4K15 (parent)
chain: GUUAACGGUCAUAGGCCAUGGAAACUAGGAGCACCAUUUCGCUGCCAGUGAAGAAAUGAACAAAGAAAAUCUGGGCCAGGCAGGCAUCAAAAGAAAUAGUCUUGCGCUCAACCAGAAAGUCUGUAAUCAUUUUAAGGGUA

Variants of: B1
Test: self-cleavage, relative activity (ratio to wild type); higher = more cleavage; in vitro, sequencing; the parent is a self-cleaving ribozyme

Variant	self-cleavage
U9A A95G	1.18
C10U A78G	0.1
U9C A117U	1.04
U9C A117G	1.91
A11G G48A	1.9
C10U U19C	1.34
U9G U130C	0.7
A11G G83A	1.23
A11C A86G	1.7
A11U U120C	0.69
A11U A62G	0.96
A11U A62C	0.99
A11G U72C	0.21
A11U A63U	1.56
A11G A52G	1.03
U9C U120C	1.66
A11G A56G	0.35
U9C U12C	1.27
U9C U12A	1.59
U9C A90G	1.04
U9A A86U	1.37
U9A G58A	0.78
U9C A94G	1.35
A11U A94G	0.71

Variant	self-cleavage
A11U A135U	0.98
A11U A52C	1.27
A11G A117G	1.19
U9C G104A	0.06
A11G A118G	1.02
A11G A51U	0.82
U9A A129U	1.02
U9C G106U	0
U9C G106A	0.01
A11G C61A	0.69
A11G U49A	0.88
A11G U49G	1.21
A11C A63G	1.91
U9C C17U	1.8
A11G A27G	1.1
U9C G65A	2.38
C10A C77U	1.18
U9A A126G	0.57
C10A U37G	0.71
C10A U37C	1
U9A U39C	0.86
U9A G115A	0.23
U9C C35A	1.71
U9C A23G	1.02

Variant	self-cleavage
A11G A33C	1.98
A11G A33G	0.84
A11G A47U	0.98
A11C A78G	0.18
A11G G136U	1.19
A11G A62G	1.11
A11U U70C	0.67
A11U A64G	1.56
A11G A63G	1.1
A11G A63C	0.97
A11U U12C	0.97
U9C A82C	0.07
A11C A13U	1.09
A11G A95G	1.73
A11G A98G	0.33
U9G A118G	0.91
C10U U38A	0.84
A11G C32G	0.61
U9A U127A	0.66
U9A U127C	1.05
A11C A110U	1.76
A11U A82U	0.31
U9C A91C	2.12
U9C A91G	1.2

Variant	self-cleavage
U9C U49G	0.96
U9C U49C	1.67
U9C U49A	1.56
U9C A64G	1.52
U9A G106C	0.05
U9A C34U	0.55
U9C U26C	1.06
U9C G21A	1.38
U9G U108C	0.05
A11G C81U	0.75
A11G U12C	1.07
A11U A68G	0.99
U9A U132C	0.79
U9C C45G	0.85
U9A U139C	1.69
U9C A67C	1.31
U9C A67G	1.85
U9A U57C	1.02
A11U A90U	1.19
A11C U102C	1.91
U9C A36U	1.48
U9C A110U	1.32
U9C A110C	0.45
U9A U108C	0.03

Variant	self-cleavage
A11C A24G	1.94
C10U U120C	1.12
A11U C16U	2.22
U9C A18G	1.65
U9C G41U	1.55
A11U A18U	1.82
A11G A54U	1.09
A11G U103A	0.77
U9C A125G	0.66
U9C G115C	0.11
U9C A86U	1.74
A11G G119A	2.11
U9C A134G	1.55
U9C U102A	1.31
U9C U102C	2.15
A11C U103C	0.98
U9C U43G	2.16
U9C U43A	1.24
C10U U100C	2.44
A11U A54G	0
U9G A92G	1.15
C10U A118G	0.33
A11G A67U	1.16
A11G A67G	0.74

Variant	self-cleavage
A11G A89U	1.34
A11G A89G	0.59
A11U G15A	1.97
A11G A24G	1.02
A11G A24U	0.53
A11G A24C	1.51
U9C G74U	0.15
A11G A64U	0.97
A11G A64G	1.3
A11C A52U	1.5
A11U U102A	0.7
U9C C85U	1.44
A11G C105U	0.09
A11G U87C	1.14
A11C U43C	2.23
U9C A126G	1.19
U9C A66U	1.42
U9C C81U	0.36
A11G A22U	1.75
U9C G48A	0.64
U9G A68G	0.72
A11G G29A	0.57
C10U G31U	1.22
U9A U100C	1.68

Variant	self-cleavage
A11G U108C	0.01
U9C U124C	1.25
U9C A62G	1.49
A11C A91G	1.67
U9A U72C	0.16
A11G U39A	0.88
U9G A129G	0.65
A11G G73A	0.14
A11U A22G	1.53
A11G U43A	1.12
A11G U43G	1.18
A11G U43C	0.92
A11U A33G	0.98
C10A A110G	0.31
U9C A59U	1.48
U9C U37C	1.57
A11U A78G	0.31
A11U A78U	0.49
U9C C105U	0.14
U9C U122A	1.06
U9A A135U	1
U9A A135G	1.41
C10U U57C	1.03
A11G A55G	0.92

Variant	self-cleavage
U9C A95G	1.88
A11G A69U	1
A11G A69G	0.99
U9C A63G	1.64
A11U A67G	1.5
C10U A22U	1.21
U9C A98G	0.22
A11G A13G	1.26
A11G A13U	0.72
A11U A23U	0.71
A11G U37C	1.16
C10U A82U	0.13
U9A A82U	0.12
A11G C85A	1.53
C10G A60G	0.77
A11G U97G	0.34
A11G A82G	0.55
A11C U38C	1.72
U9C U70C	0.77
U9C U70A	0.97
U9C U57C	1.07
U9C U57G	1.07
U9C A69G	1.38
C10A U127C	0.84

Variant	self-cleavage
U9G A69G	1
A11G A60G	0.86
A11G G58U	0.79
A11G C46U	0.77
A11U A126G	0.81
U9C C61U	2.27
A11U A129U	0.64
A11U A129G	1.27
A11G A126G	0.39
A11G A129U	0.45
A11G A129G	0.83
U9A C32U	1.2
U9C U132A	1.85
U9G U12C	0.29
A11G U131G	1.52
A11U C40A	1.2
C10A A30G	0.63
A11G A18U	0.46
A11G A18G	1.36
A11G A23G	1.1
C10A G44A	1.2
A11G U120A	0.58
A11G U57C	0.63
A11G A36U	1.12

Variant	self-cleavage
U9A A117G	2.34
U9C U72C	0.2
A11U A24G	1.7
C10U A68G	0.34
U9A U102C	1.97
C10U A94G	1.27
U9C G31A	1.12
U9A U70C	1.07
A11G A114U	0.15
U9A U38C	1.05
A11U A36U	0.78
U9C A27G	1.55
U9C A27U	1.02
C10U A86G	0.7
A11G U100C	1.06
A11G U132A	1.16
A11G U132C	1.21
U9C U87C	0.96
U9C U87A	1.98
U9C U87G	0.69
U9C G29A	2.15
A11C A114U	0.09
U9C A33G	1.15
U9C A33U	1.73

Variant	self-cleavage
U9C C16U	1.59
A11G G115U	0.27
A11C A27U	1.24
A11U G58U	0.86
U9C A56G	1.24
A11C U97C	1.26
A11U A116U	0.5
U9G A59G	1
U9C A22U	1.7
A11U U49G	1.14
A11U U49A	0.68
U9C G123A	2.14
U9C A118G	1.32
U9C A118U	0.88
U9C U108A	0.04
A11U A13U	1.5
U9A U43G	1.18
U9A U43C	1.25
A11G G74A	0.41
A11G G74U	0.24
A11G G74C	0.38
U9A U120C	0.79
U9A U120A	1.36
A11U A51G	1.48

Variant	self-cleavage
U9C A55G	1.28
A11G A96G	1.18
U9C U97C	1.09
A11U U37C	1.01
A11G U19C	0.56
A11G U19A	1.08
A11G U127C	0.63
A11C U127C	0.83
C10U A125G	0.61
C10U U37C	1.65
U9C A13G	0.81
A11G G14A	1.31
U9C C109G	0.04
U9C C109A	0.49
U9G A89U	1.03
A11C A82U	0.36
A11C A60G	1.07
U9A A116G	0.45
U9A A116U	0.18
U9C U131A	1.8
A11G A92G	1.1
A11G A92U	1.26
A11C U131C	0.89
U9A A111G	0.03

Variant	self-cleavage
U9C A114U	0.1
U9C A51U	2.13
U9C U19A	1.65
U9C U19C	1.77
A11G A111U	0.11
A11G A111C	0.04
C10U C77U	0.98
U9C A52C	1.39
A11U G84A	2.42
A11G C71G	0.34
U9C A96U	1.72
A11U U103C	0.73
A11G U102A	0.58
A11U U108C	0.01
A11U U108A	0.02
U9C A78G	0.32
A11G U70G	0.6
C10U G14U	0.49
U9A U122G	2.09
C10U G104A	0.06
A11G G79A	0.16
U9G A91C	0.6
A11U G41A	0.96
C10U U39A	0.81

Variant	self-cleavage
U9C A11C	1.71
U9C A11G	0.85
U9C C40U	1.45
A11U A125G	1.3
A11U U131C	1.15
U9A C109A	0.42
A11G A116U	0.12
A11G A116G	0.92
U9C U39C	1.45
U9C U39A	1.33
C10A A69G	0.29
C10U A90C	0.97
A11U U43C	1.44
U9G C45G	0.5
A11G G50U	1.02
A11U A98U	1.82
C10U	0.84
C10A	1.11
A11U A47U	0.96
U9C U38C	1.7
U9C U38A	1.98
U9A U124C	0.91
